2 molecules from paper PMC4776146, “Distinct phosphorylation sites on the ghrelin receptor, GHSR1a, establish a code that determines the functions of ß-arrestins” (Scientific Reports, 2016) can be followed below.

What all share (test): FRET or BRET; BRET in living HEK 293 cells; eYFP-tagged receptor and Rluc-ß-arrestin co-transfected at a ratio of 4:1; Hanks' balanced salt solution; coelenterazine 2.5 uM for 10 min at 37 °C, then ghrelin for 5 min; concentration response curves for ghrelin; emissions at 535 and 475 nm
Assay [1] addresses GHSR1a-TM (triple mutant of Ser362, Ser363 and Thr366 to Ala) fused at its C terminus to eYFP (UniProt Q92847).
The target in assay [2] is GHSR1a-Total (Ser349, Thr350, Ser362, Ser363 and Thr366 substituted by Ala) fused at its C terminus to eYFP (UniProt Q92847).
Chain of GHSR1a-Total (Ser349, Thr350, Ser362, Ser363 and Thr366 substituted by Ala) fused at its C terminus to eYFP (Q92847 other isoform, or with tags, fused parts or gaps): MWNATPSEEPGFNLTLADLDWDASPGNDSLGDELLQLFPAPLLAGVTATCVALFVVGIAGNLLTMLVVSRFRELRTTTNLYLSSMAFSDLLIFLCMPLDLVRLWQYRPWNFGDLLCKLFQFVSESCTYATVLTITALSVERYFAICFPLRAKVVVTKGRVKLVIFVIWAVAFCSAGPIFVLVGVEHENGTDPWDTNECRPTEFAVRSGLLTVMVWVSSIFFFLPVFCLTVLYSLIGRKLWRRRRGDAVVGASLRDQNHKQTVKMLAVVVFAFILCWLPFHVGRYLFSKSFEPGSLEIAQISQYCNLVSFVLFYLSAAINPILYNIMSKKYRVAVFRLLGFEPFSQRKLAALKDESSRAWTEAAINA
In assay [3] the target is T1, GHSR1a-WT fused at its C terminus to enhanced yellow fluorescent protein (eYFP) (UniProt Q92847 1-366).
T1 construct: amplified by PCR with primers that removed the stop codon, subcloned upstream of full-length eYFP in pcDNA3.1; Phosphorylated in cells after ghrelin at Ser349, Thr350, Ser362, Ser363 and Thr366 (mass spectrometry on the EGFP-tagged receptor); also called YFP-GHSR1a-WT; YFP tagged-GHSR1a-WT; source: HEK 293, transiently co-transfected (Lipofectamine 2000), in living cells; not shown: eYFP, …
T1 sequence (Q92847 whole entry, the tested form may be a part): as the sequence (Q92847 other isoform, or with tags, fused parts or gaps) above, with A349S, A350T, A362S, A363S, A366T counted along it
The following applies: partners not purified.

The target in assay [4] is T2, GHSR1a-DM (double mutant Thr350Ala, Ser349Ala) fused at its C terminus to eYFP (UniProt Q92847 1-366, Thr350Ala | Ser349Ala).
T2 construct: also called YFP-GHSR1a-DM; source: HEK 293, transiently co-transfected (Lipofectamine 2000), in living cells; not shown: eYFP, C-terminal, kept
T2 sequence (Q92847 whole entry S349A/T350A, the tested form may be a part): as the sequence (Q92847 other isoform, or with tags, fused parts or gaps) above, with A362S, A363S, A366T counted along it
The following applies: partners not purified.

Chain of GHSR1a-TM (triple mutant of Ser362, Ser363 and Thr366 to Ala) fused at its C terminus to eYFP (Q92847 other isoform, or with tags, fused parts or gaps, change not shown): as the sequence (Q92847 other isoform, or with tags, fused parts or gaps) above, with A349S, A350T counted along it

As for “ß-arrestin 2 tagged with Rluc at its C-terminus (from UniProt P32121 1-409) (natural protein)”, in assay [1], the efficacy of recruitment, percent of GHSR1a-WT response (BRET) (% of GHSR1a-WT response) was found to be 24.6 and the pEC50 of ghrelin for ß-arrestin 2 recruitment (BRET) is 6.97. Also, in assay [2], the efficacy of recruitment, percent of GHSR1a-WT response (BRET) (% of GHSR1a-WT response) amounted to 18 and the pEC50 of ghrelin for ß-arrestin 2 recruitment (BRET) stood at 6.04.

B1: Renilla luciferase-tagged ß-arrestin 1 (natural protein, UniProt P49407 1-418, looked up)
chain: MGDKGTRVFKKASPNGKLTVYLGKRDFVDHIDLVDPVDGVVLVDPEYLKERRVYVTLTCAFRYGREDLDVLGLTFRKDLFVANVQSFPPAPEDKKPLTRLQERLIKKLGEHAYPFTFEIPPNLPCSVTLQPGPEDTGKACGVDYEVKAFCAENLEEKIHKRNSVRLVIRKVQYAPERPGPQPTAETTRQFLMSDKPLHLEASLDKEIYYHGEPISVNVHVTNNTNKTVKKIKISVRQYADICLFNTAQYKCPVAMEEADDTVAPSSTFCKVYTLTPFLANNREKRGLALDGKLKHEDTNLASSTLLREGANREILGIIVSYKVKVKLVVSRGGLLGDLASSDVAVELPFTLMHPKPKEEPPHREVPENETPVDTNLIELDTNDDDIVFEDFARQRLKGMKDDKEEEEDGTGSPQLNNR
notes: plasmid provided by Prof; Mark Scott (Institut Cochin, Paris); also called Rluc-ß-arrestin 1; source: HEK 293, transiently co-transfected (Lipofectamine 2000), in living cells
Turning to B1, the efficacy of recruitment, percent of GHSR1a-WT response (BRET) (% of GHSR1a-WT response) was determined as 36.8 in assay [1] and 31.8 in assay [2]. The pEC50 of ghrelin for ß-arrestin 1 recruitment (BRET) in assay [1] came out at 7.13; in assay [2] it was 6.01; in assay [3] it was 7.54; in assay [4], 7.1.
